The target of the assay is hPD-1-hIgGFc antigen (human), Q15116. In words: ELISA on coated hPD-1-hIgGFc, ligand PD-L2-his tag 0.3 µg/ml detected; no antibody (row 'blank' under HX009-5).

Like-named read-outs stand apart in the source and are kept apart here.

hPD-1-hIgGFc antigen (human), Q15116, sequence (Q15116 25-167 limits assumed): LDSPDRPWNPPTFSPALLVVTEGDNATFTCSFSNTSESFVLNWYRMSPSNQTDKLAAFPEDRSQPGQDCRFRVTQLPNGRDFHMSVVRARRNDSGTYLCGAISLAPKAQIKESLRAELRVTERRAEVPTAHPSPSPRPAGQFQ

B1: PD-L2-his tag, Q9BQ51 20-220 (ligand, UniProt Q9BQ51 20-220, looked up, not shown: small tags and cut ends)
chain: LFTVTVPKELYIIEHGSNVTLECNFDTGSHVNLGAITASLQKVENDTSPHRERATLLEEQLPLGKASFHIPQVQVRDEGQYQCIIIYGVAWDYKYLTLKVKASYRKINTHILKVPETDEVELTCQATGYPLAEVSWPNVSVPANTSHSRTPEGLYQVTSVLRLKPPPGRNFSCVFWNTHVRELTLASIDLQSQMEPRTHPT
For the molecule B1, the absorbance at 450 nm was 1.1. The same molecule displayed an absorbance at 450 nm (remark: other sources report otherwise) of 1.09.

The values above are taken from patent US20200291118A1.
